# Reference: the domain aggregation screens of Martell et al. (2025)
# Experiment: soluble fraction after stress (log2 fold change); higher = more stays soluble; pooled small domains, quantitative proteomics
# Conditions: stress: pH 4
# Procedure, shortened: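 Values are log2 fold changes, and higher ones mean more of the domain stayed soluble. Each fold change reflects the soluble amount of a domain after acid stress and is taken as a measure of aggregation propensity. The stress was pH 4, applied to pooled custom libraries of small protein domains analysed by high-throughput quantitative proteomics.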
row,Sequence,soluble fraction (log2)
1,HMKNTIPVPHIIGLSEQEARETLERAGLQLNVIKTEPNTKYESGQVTDTNPNEGIKVPKGTIVNVVLADS,-0.0342
2,HMKNTLDAYIRYLSNFLSRNNYPEAEDLSFINARADQAYEVFLEARRGGVDVSTAEELAMIALMQGY,-1.34
3,HMKNVEEMILGKLKRKVSENLENASFEEIILVDAEKSVYKGIIKANYIEYYFRVNLSTGEVLSWKLK,-0.755
4,HMKPAFTPYVVKVTADVLNVRSGPGTNYGITTKVKKGEAYTIVEEKNGWGKLKSGAGWISLEYTVK,-0.0552
5,HMKPALFSADELNRLYRYGLSLTGERDRAYDLLQTALEKYLRQSQAPANAMRYVRKIMHNQFIDDYR,-0.0906
6,HMKPDWLSDGRLIPDEVMSHLRKIAVHAVEEMGYSPEDVIKILGLSRNTIYDWLKRFREHGYEGLDTKK,-0.738
7,HMKPLAQQVNDYLAATRTSIATLANEIPGYSRPTISRYLAGKYDGDITTIEKLLAEWLAQRTG,-0.581
8,HMKPNEYVSGETFPYLGKNYRLKVLHGSENSVRLKGGYFITTISNRDSQLSTVKSLLEDWYQTHADK,-0.163
9,HMKPPTIELSYSEFIELVERGKVSKVIFSSDNYTLKGETVNGENFETVRPPFLEDNLSEILTIHKVPVSSE,-0.785
10,HMKPSKTVYTTANLNLRNGASMSAAVYTSVSRGTALATTGRTTSGWTQITHRGRTLWASSKYLTTTTPP,0.155
11,HMKPSNRSYPTALRMEVIGIIRERYADFGPTLAGEKLAELHGIHLGRETIRQWMMAAGLWKDRR,-0.759
12,HMKPTVKVPNVVNLSLRNAQIQLQNYGLEVGSISYESSRFKNAVLRQSISEGSVVEKGTTINLVISDGL,0.178
13,HMKPVPPLNGTSLRDLALGYAGRYATTAARLKHYLQRKLRERGWGGEDEPDLDGLVARLVELGYVNDEVF,-0.723
14,HMKQAINFSDLNSLEEGLGIAIRQKWNEVSINDVPEDKIELVEDWINNNRGKYKGINISIGSTY,0.0722
15,HMKQAVESAEAIFEEIARIKKLSLVKSEAEEIARKTGLQKFTIASQLLKNQHAYEMDESEIASLWDKKI,-0.594
16,HMKQDFVYNGFVEAKGDDLMVQINYKGETYYVTEGESFGGFTVKSANKDKVVLSGQGGAETVLEFR,-0.536
17,HMKQENRLKILRKEKGLTQTKLANEIGVSKRTIIAWENDERQIKPDKAQQLADYFGVKEGYLLGYTNN,-0.0458
18,HMKQESSEDLLNEVIDKVIDSNPDEKNRLLDGELKLVSFFMGQVMKETKGKANPGVINGLIKKKFNI,-0.748
19,HMKQISNTDELEAMIQKIIEDNSQQVEKFRSGNEKLFGWFVGQVMKNTQGAANPKVVNEILKKSLK,0.181
20,HMKQISNTDELESMAKNIIQENPDQVSKFKNGNEKLFGWFVGQMMKSTGGTANPKVVNEILKNLLN,0.162
21,HMKQLIGYSVIDIKMGKLGEISFVNSKTAQALIHVSKDGKGFYFPWHKQFVKNIDAEKGIMEVEIPKEFLD,-0.85
22,HMKQLNKRQNDILSFAEKQGYVSVENLAKLFSVTQQTIRRDINYLSDNELLVRTHGGAYYSS,-0.0112
23,HMKQNRNLPVQIINNGKIIESVMTEFNLDIDWVYSEAKRLGYKNIKDIFYAGINRDGQFFIVPLF,-1.35
24,HMKQNVEAVIKERAIEKARAQVKAVSTHMALEAQSLSKEQLEFEIERIAAQIIDKMPSDFWND,-0.819
25,HMKQPNFTVIETKILELLFQKDLSSREMQEILKISKDNLIFALQNLLEQEKIVLQTSNTYTVN,-2.02
26,HMKQPVPDEIYFKRLANATEALGRYPRASERKKFGLNMSKRRYPTLTDFINKAIELGYVEDFR,0.22
27,HMKQQAYEQGKAAYQSGDWLRAVTQLGQVKEAGEKNGEVDHLLGNAYMKLGQFESAAYAYNSALEDVA,0.123
28,HMKQTMIVVMEKDAPQSQIDDMVKRIEGLGLKAHTIVGTQRTVVAAIGEKREDTRESLAGSPGVAEVVPIL,-0.137

row,Sequence,soluble fraction (log2)
1,HMKQYVEPASETEKMVVELWEKVLLTEKIGMHDDFFELGGHSLKAMRLISLYHQEFNVRLSLKSLFEKLK,-1.07
2,HMKRAVGLDEYRDSIVLKKPEGYTEESYAAYKNAYDALMALDSKETTAEMFANAKSAFEAAQAGLVQKP,0.0195
3,HMKRIFEKKVVTESLNGLRLDKAAATLFADFSRNELGQWIKDEALLVNGKAKKVKEKVSEGDVLALDVELI,0.0389
4,HMKRISDEDLLVMRRIDEVHTYHPTWGYRTITRILRRDDHLLINPKKVRRIMRDMGIYTIYPK,-0.41
5,HMKRITAVISQKKGRDYYYIIVSYYLSNGKRVQRWIKTEFPINGNNKRKLEQKRIEVLQEWQDKLV,-0.486
6,HMKRLQEQAYDYLKELILSGKMIENEIYSETKLASEIGISRTPIRDALQRLSQDGFIDIIPSKGFRIH,-0.889
7,HMKRMSKKQLSAVIEKYFSSQPGVTLTLKDIFRNLHLDTHPLKMIALDILEEMSWDDVIMKVSDTSYALNT,2.81e-05
8,HMKRNLESVLDHIEGIGPKRRKALYKHFGNLDAMRVAELEELESVEGMNKKAALAVYEFFRRNS,0.411
9,HMKRNTKAEVLEILLNSGETPVSGERLAENLGISRNAVWKAVTALKEDGYNISAKRNSGYILNKS,0.376
10,HMKRREENLRRLALSTAERVKRKGKKEILNPMSPQERRIIHLTLQNNKEVVTHSEGEDPYRRVIISPRN,0.311
11,HMKRRSLQVGDIVQVRSLNVKGEVVSIGKNEVVVAVGRLQMRAGFDDLDFKERPKEEREVESV,0.0749
12,HMKRSFGSVRQLRSGNYQARYTGPDTVRHTSPVTYTSKMDAEAWLVDERRKISSGTWTPPAR,0.251
13,HMKRSVIVTAERAEVRQKADEGSALVFEAEKNVSLEYLEAAPGGWVKVRHLDGQSGFVRGNQI,-0.901
14,HMKRTKLEEATEWLRDRLSDGVKYNGEELLREGESADMARRTLRRAAQELGVIIERERGARGRWFWSLP,0.254
15,HMKRTLLLEGRTIPYELTQKPVKNINIRVHADGSVRVSAGPWVSPEAVDAVLRQRSAFLLRALDQFAAQAP,-0.923
16,HMKRVPFAFAGDMLRWAAWLYHVEKRTQNEIAEELEVSRQTVANYLSEAMSQGLVQVQLRSDIIE,-1.39
17,HMKSAIGEEKAENFAFADLGMDPLSAEGVRTEFGFEQGQFVYKVYFTADGTEYEYWIKASDGSVVKKGMDL,-1.33
18,HMKSAIKQNILLYLSNKGVTSYEFYKISGVTRGILQQSNGISEDNIAKFLAYAPDVNIEWLLTGKGDMLKH,-0.325
19,HMKSATGKIPDFISDLPVDEFVRELIVTNAFQPLNKFKEVQNHIGSALKIYVDELTEKRANGTVHILYSHK,-0.324
20,HMKSAYADVAIAKVQDYVNVRAENNEDSEVLGKLYNNSAATVLETTDDGWYKISSGSVTGYVKSEYVVVG,-1.04
21,HMKSEMYIDLSNALLKMSERDKELLTYRYTMEMSSKEISQITGIKESNVNSYIRRAREKLLKIFNAMNK,0.123
22,HMKSFDERQAALNELAKVIEGTGRKAEQDAEFRREQNQLMIDKIDEQLKGDLTDSQREELKKERAALARK,0.0649
23,HMKSGLLNLSTRKQEKIKQALLSEFSNVSLLEAKVANIVTLAEISRGSFYTYFEDIYDAYQWLASI,0.22
24,HMKSIFIRADELAAELDVSKALAYKMINQWNEELKAKGYTTVGGRVSRQYYYEKIYGAENVFDF,-1.78
25,HMKSILDDVVGLGPVRKKALLSAAGGFRKLRDMDVDEVIGLGAVPEEVAREVVTVLAQYNGERDRVEGL,0.104
26,HMKSILSEIPGIGPKKRKSLMMQFGSVKNISEASLKDLSSTKGINSNLSKEIFNFFSVEKNN,0.15
27,HMKSKNILLGEYKGKEVHVGEGKYGPFILYDKKFKSIGAYLTENSLMLKDLTIEDYSKIMKFTENSNSKS,0.0285
